The chains are these.
T1: Human LRRC15 Protein, His Tag (Acro Biosystems) (human, UniProt Q8TF66 22-538, limits assumed)
T1 construct: not shown: His tag
T1 sequence (looked up): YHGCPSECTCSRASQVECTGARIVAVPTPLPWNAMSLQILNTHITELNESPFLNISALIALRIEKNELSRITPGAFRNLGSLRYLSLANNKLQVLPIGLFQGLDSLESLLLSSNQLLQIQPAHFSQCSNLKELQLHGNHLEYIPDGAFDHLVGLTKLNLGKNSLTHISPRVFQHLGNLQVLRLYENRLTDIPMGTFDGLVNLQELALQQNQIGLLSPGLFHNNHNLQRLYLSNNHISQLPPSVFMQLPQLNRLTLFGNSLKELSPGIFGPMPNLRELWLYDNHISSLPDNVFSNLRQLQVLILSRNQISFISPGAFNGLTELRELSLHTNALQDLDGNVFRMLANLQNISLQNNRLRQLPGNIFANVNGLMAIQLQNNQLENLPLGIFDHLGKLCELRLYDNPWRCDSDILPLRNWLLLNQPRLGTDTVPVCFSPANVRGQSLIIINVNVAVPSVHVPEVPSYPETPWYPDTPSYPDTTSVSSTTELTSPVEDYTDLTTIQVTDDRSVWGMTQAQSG

B1: MYT7935 (antibody, V domains shown)
VH: QQQLVESGGGLVKPGASLTLTCKASGFSFSGSYWICWVRQAPGKGLEWIGCINGGSLDITYYASWAKGRFTISKASSTTVTLQKTSLTAADTATYFCASDTSYTAYGNFYFNLWGPGTLVTVSS
VL: AQVLTQTASPVSAAVGGTVTINCQSSQSVLNNHWLAWYQQKPGQPPKLLIYDASSLASGVPSRFKGSGSGTQFTLTISDLESDDAATYYCQGEFSCGSADCNAFGGGTEVVVKG
notes: also called 24D9 VL N33H
B2: MYT7950 (antibody, V domains shown)
VH: QQQLVESGGGLVKPGASLTLTCKASGFSFSGSYWICWVRQAPGKGLEWIGCINGGSLDITYYASWAKGRFTISKASSTTVTLQKTSLTAADTATYFCASDTSYTAYGNFYFNLWGPGTLVTVSS
VL: AQVLTQTASPVSAAVGGTVTINCQSSQSVLNNNWLAWYQQKPGQPPKLLIYDASSLASGVPSRFKGSGSGTQFTLTISDLESDDAATYYCQGEFHCGSADCNAFGGGTEVVVKG
notes: tested as culture supernatant; also called 24D9 VL S95H
B3: MYT7952 (antibody, V domains shown)
VH: QQQLVESGGGLVKPGASLTLTCKASGFSFSGSYWICWVRQAPGKGLEWIGCINGGSLDITYYASWAKGRFTISKASSTTVTLQKTSLTAADTATYFCASDTSYTAYGNFYFNLWGPGTLVTVSS
VL: AQVLTQTASPVSAAVGGTVTINCQSSQSVLNNNWLAWYQQKPGQPPKLLIYDASSLASGVPSRFKGSGSGTQFTLTISDLESDDAATYYCQGEFSCHSADCNAFGGGTEVVVKG
notes: tested as culture supernatant; also called 24D9 VL G97H
B4: MYT7948 (antibody, V domains shown)
VH: QQQLVESGGGLVKPGASLTLTCKASGFSFSGSYWICWVRQAPGKGLEWIGCINGGSLDITYYASWAKGRFTISKASSTTVTLQKTSLTAADTATYFCASDTSYTAYGNFYFNLWGPGTLVTVSS
VL: AQVLTQTASPVSAAVGGTVTINCQSSQSVLNNNWLAWYQQKPGQPPKLLIYDASSLASGVPSRFKGSGSGTQFTLTISDLESDDAATYYCQGHFSCGSADCNAFGGGTEVVVKG
notes: tested as culture supernatant; also called 24D9 VL E93H
B5: MYT7939 (antibody, V domains shown)
VH: QQQLVESGGGLVKPGASLTLTCKASGFSFSGSYWICWVRQAPGKGLEWIGCINGGSLDITYYASWAKGRFTISKASSTTVTLQKTSLTAADTATYFCASDTSYTAYGNFYFNLWGPGTLVTVSS
VL: AQVLTQTASPVSAAVGGTVTINCQSSQSVLNNNWLAWYQQKPGQPPKLLIYHASSLASGVPSRFKGSGSGTQFTLTISDLESDDAATYYCQGEFSCGSADCNAFGGGTEVVVKG
notes: tested as culture supernatant; also called 24D9 VL D52H
B6: MYT7937 (antibody, V domains shown)
VH: QQQLVESGGGLVKPGASLTLTCKASGFSFSGSYWICWVRQAPGKGLEWIGCINGGSLDITYYASWAKGRFTISKASSTTVTLQKTSLTAADTATYFCASDTSYTAYGNFYFNLWGPGTLVTVSS
VL: AQVLTQTASPVSAAVGGTVTINCQSSQSVLNNNWHAWYQQKPGQPPKLLIYDASSLASGVPSRFKGSGSGTQFTLTISDLESDDAATYYCQGEFSCGSADCNAFGGGTEVVVKG
notes: tested as culture supernatant; also called 24D9 VL L35H
B7: MYT7943 (antibody, V domains shown)
VH: QQQLVESGGGLVKPGASLTLTCKASGFSFSGSYWICWVRQAPGKGLEWIGCINGGSLDITYYASWAKGRFTISKASSTTVTLQKTSLTAADTATYFCASDTSYTAYGNFYFNLWGPGTLVTVSS
VL: AQVLTQTASPVSAAVGGTVTINCQSSQSVLNNNWLAWYQQKPGQPPKLLIYDASSHASGVPSRFKGSGSGTQFTLTISDLESDDAATYYCQGEFSCGSADCNAFGGGTEVVVKG
notes: tested as culture supernatant; also called 24D9 VL L56H
B8: MYT7947 (antibody, V domains shown)
VH: QQQLVESGGGLVKPGASLTLTCKASGFSFSGSYWICWVRQAPGKGLEWIGCINGGSLDITYYASWAKGRFTISKASSTTVTLQKTSLTAADTATYFCASDTSYTAYGNFYFNLWGPGTLVTVSS
VL: AQVLTQTASPVSAAVGGTVTINCQSSQSVLNNNWLAWYQQKPGQPPKLLIYDASSLASGVPSRFKGSGSGTQFTLTISDLESDDAATYYCQHEFSCGSADCNAFGGGTEVVVKG
notes: tested as culture supernatant; also called 24D9 VL G92H
B9: MYT7942 (antibody, V domains shown)
VH: QQQLVESGGGLVKPGASLTLTCKASGFSFSGSYWICWVRQAPGKGLEWIGCINGGSLDITYYASWAKGRFTISKASSTTVTLQKTSLTAADTATYFCASDTSYTAYGNFYFNLWGPGTLVTVSS
VL: AQVLTQTASPVSAAVGGTVTINCQSSQSVLNNNWLAWYQQKPGQPPKLLIYDASHLASGVPSRFKGSGSGTQFTLTISDLESDDAATYYCQGEFSCGSADCNAFGGGTEVVVKG
notes: tested as culture supernatant; also called 24D9 VL S55H
B10: MYT7938 (antibody, V domains shown)
VH: QQQLVESGGGLVKPGASLTLTCKASGFSFSGSYWICWVRQAPGKGLEWIGCINGGSLDITYYASWAKGRFTISKASSTTVTLQKTSLTAADTATYFCASDTSYTAYGNFYFNLWGPGTLVTVSS
VL: AQVLTQTASPVSAAVGGTVTINCQSSQSVLNNNWLHWYQQKPGQPPKLLIYDASSLASGVPSRFKGSGSGTQFTLTISDLESDDAATYYCQGEFSCGSADCNAFGGGTEVVVKG
notes: tested as culture supernatant; also called 24D9 VL A36H
B11: MYT7945 (antibody, V domains shown)
VH: QQQLVESGGGLVKPGASLTLTCKASGFSFSGSYWICWVRQAPGKGLEWIGCINGGSLDITYYASWAKGRFTISKASSTTVTLQKTSLTAADTATYFCASDTSYTAYGNFYFNLWGPGTLVTVSS
VL: AQVLTQTASPVSAAVGGTVTINCQSSQSVLNNNWLAWYQQKPGQPPKLLIYDASSLAHGVPSRFKGSGSGTQFTLTISDLESDDAATYYCQGEFSCGSADCNAFGGGTEVVVKG
notes: tested as culture supernatant; also called 24D9 VL S58H
B12: MYT7936 (antibody, V domains shown)
VH: QQQLVESGGGLVKPGASLTLTCKASGFSFSGSYWICWVRQAPGKGLEWIGCINGGSLDITYYASWAKGRFTISKASSTTVTLQKTSLTAADTATYFCASDTSYTAYGNFYFNLWGPGTLVTVSS
VL: AQVLTQTASPVSAAVGGTVTINCQSSQSVLNNNHLAWYQQKPGQPPKLLIYDASSLASGVPSRFKGSGSGTQFTLTISDLESDDAATYYCQGEFSCGSADCNAFGGGTEVVVKG
notes: tested as culture supernatant; also called 24D9 VL W34H
B13: MYT7949 (antibody, V domains shown)
VH: QQQLVESGGGLVKPGASLTLTCKASGFSFSGSYWICWVRQAPGKGLEWIGCINGGSLDITYYASWAKGRFTISKASSTTVTLQKTSLTAADTATYFCASDTSYTAYGNFYFNLWGPGTLVTVSS
VL: AQVLTQTASPVSAAVGGTVTINCQSSQSVLNNNWLAWYQQKPGQPPKLLIYDASSLASGVPSRFKGSGSGTQFTLTISDLESDDAATYYCQGEHSCGSADCNAFGGGTEVVVKG
notes: tested as culture supernatant; also called 24D9 VL F94H
B14: MYT7951 (antibody, V domains shown)
VH: QQQLVESGGGLVKPGASLTLTCKASGFSFSGSYWICWVRQAPGKGLEWIGCINGGSLDITYYASWAKGRFTISKASSTTVTLQKTSLTAADTATYFCASDTSYTAYGNFYFNLWGPGTLVTVSS
VL: AQVLTQTASPVSAAVGGTVTINCQSSQSVLNNNWLAWYQQKPGQPPKLLIYDASSLASGVPSRFKGSGSGTQFTLTISDLESDDAATYYCQGEFSHGSADCNAFGGGTEVVVKG
notes: tested as culture supernatant; also called 24D9 VL C96H
B15: MYT7940 (antibody, V domains shown)
VH: QQQLVESGGGLVKPGASLTLTCKASGFSFSGSYWICWVRQAPGKGLEWIGCINGGSLDITYYASWAKGRFTISKASSTTVTLQKTSLTAADTATYFCASDTSYTAYGNFYFNLWGPGTLVTVSS
VL: AQVLTQTASPVSAAVGGTVTINCQSSQSVLNNNWLAWYQQKPGQPPKLLIYDHSSLASGVPSRFKGSGSGTQFTLTISDLESDDAATYYCQGEFSCGSADCNAFGGGTEVVVKG
notes: tested as culture supernatant; also called 24D9 VL A53H
B16: MYT7944 (antibody, V domains shown)
VH: QQQLVESGGGLVKPGASLTLTCKASGFSFSGSYWICWVRQAPGKGLEWIGCINGGSLDITYYASWAKGRFTISKASSTTVTLQKTSLTAADTATYFCASDTSYTAYGNFYFNLWGPGTLVTVSS
VL: AQVLTQTASPVSAAVGGTVTINCQSSQSVLNNNWLAWYQQKPGQPPKLLIYDASSLHSGVPSRFKGSGSGTQFTLTISDLESDDAATYYCQGEFSCGSADCNAFGGGTEVVVKG
notes: tested as culture supernatant; also called 24D9 VL A57H
B17: MYT7946 (antibody, V domains shown)
VH: QQQLVESGGGLVKPGASLTLTCKASGFSFSGSYWICWVRQAPGKGLEWIGCINGGSLDITYYASWAKGRFTISKASSTTVTLQKTSLTAADTATYFCASDTSYTAYGNFYFNLWGPGTLVTVSS
VL: AQVLTQTASPVSAAVGGTVTINCQSSQSVLNNNWLAWYQQKPGQPPKLLIYDASSLASGVPSRFKGSGSGTQFTLTISDLESDDAATYYCHGEFSCGSADCNAFGGGTEVVVKG
notes: tested as culture supernatant; also called 24D9 VL Q91H
B18: MYT7941 (antibody, V domains shown)
VH: QQQLVESGGGLVKPGASLTLTCKASGFSFSGSYWICWVRQAPGKGLEWIGCINGGSLDITYYASWAKGRFTISKASSTTVTLQKTSLTAADTATYFCASDTSYTAYGNFYFNLWGPGTLVTVSS
VL: AQVLTQTASPVSAAVGGTVTINCQSSQSVLNNNWLAWYQQKPGQPPKLLIYDAHSLASGVPSRFKGSGSGTQFTLTISDLESDDAATYYCQGEFSCGSADCNAFGGGTEVVVKG
notes: tested as culture supernatant; also called 24D9 VL S54H

The target in the assay is T1, Human LRRC15 Protein, His Tag (Acro …). Nature of the assay: BLI; dissociation pH 7.4 black, pH 5.4 grey [D00016 FIG. 3B].
For B1, the binding result was “binds”.

For B2, the binding result was “no binding (tested: 50 nM LRRC15)”.

In the case of B3, the binding result was “binds”.

For B4, the binding result was “no binding (tested: 50 nM LRRC15)”.

For the molecule B5, the binding result is reported as “no binding (tested: 50 nM LRRC15)”.

For B6, the binding result was “binds”.

As for B7, the binding result is “binds”.

Turning to B8, the binding result is “no binding (tested: 50 nM LRRC15)”.

Consider B9, for which the binding result is reported as “binds”.

Consider B10, for which the binding result is “no binding (tested: 50 nM LRRC15)”.

Turning to B11, the binding result is “binds”.

As for B12, the binding result is reported as “no binding (tested: 50 nM LRRC15)”.

Take B13: the binding result is given as “binds”.

On to B14, for which the binding result is “no binding (tested: 50 nM LRRC15)”.

For B15, the binding result was “binds”.

Consider B16, for which the binding result is “binds”.

For B17, the binding result is listed as “binds”.

As for B18, the binding result is recorded as “binds”.

Values taken from patent publication US20250352661A1 (MYTHIC THERAPEUTICS, published 2025).
